The target of the test is T1, ErbB2-Domain4 protein (human, UniProt P04626 1-675).
T1 construct: Made in E. coli BL21(DE3) from pET-28a (NdeI/XhoI), dissolved from inclusion bodies in 8 M urea and purified on a Ni column; also called ErbB2-Domain4-encoded protein
Put plainly: indirect ELISA, ErbB2-Domain4 protein coated at 100 ng/well, antibody in serial dilution, A450. (In an ELISA, binding on a coated surface is turned into a signal by an enzyme label.)

Usually EC50 stands for the concentration giving half of the maximal effect.

B1: mouse anti-human ErbB2 monoclonal antibody 10A6 (antibody, mouse IgG1, kappa, V domains shown)
VH: QVTLKESGPGILQPSQTLSLTCSFSGFSLSTSGMGVSWIRQPSGKGLEWLAHIYWDDDKRYNPSLKSRLTISKDSSNKQVFLKFTSVDTADTATYYCAHFAYYNYDGAVDSWGQGTSVTVSS
VL: DIVMSQSPSSLTVSAGEKVSMSCKSSQSLLHSRTRKNYLAWYQQKPGQSPKLLIYWASTRESGVPDRFTGSGSGTDFTLTISSVQAEDLAVYYCKQSYSLYTFGGGTKLEIKR
notes: Mouse IgG1-Kappa, purified from hybridoma supernatant on protein G; also called 10A6 clonal antibody protein
On to B1, for which a half-maximal effect (EC50) was put at 100 nM.

(Values after patent publication EP3783015A1 (Beijing DCTY Biotech Co., Ltd., dated 2021).)
